According to US20250027090:

Experiments:
[1] = target: T1, thrombin (native human beta-thrombin) (Homo sapiens) (UniProt P00734+P00734); assay: EMSA; settings: for Kd: selection buffer, 10% glycerol, room temperature; for binding signal: 1 uM thrombin
[2] = target: thrombin (native bovine alpha-thrombin) (Bos taurus) (UniProt P00735+P00735); assay: ITC; settings: L-DNA (all nucleotides)
[3] = target: T1, thrombin (native human beta-thrombin) (Homo sapiens); assay: ITC; settings: L-DNA (all nucleotides); physiological buffer pH 7.4, 25 C
[4] = target: T1, thrombin (native human beta-thrombin) (Homo sapiens); assay: inhibition; settings: L-DNA (all nucleotides); R0 pool, no inhibition up to 8 uM

Sequence: ACGGAACGCGTTTCAAGACTACCGTGTTTGTTCCGT [Cy5-L-9-1t aptamer]
- Kd ([1]; L-DNA (all nucleotides)): 21 nM

Sequence: ACGGAACGCGTTTCAAGACTACCGTGTTTGTTCCGT [L-9-1t aptamer]
- Kd ([2]; ~26-fold weaker than human thrombin): 1030 nM
- Kd [3]: 39 nM

Sequence: CGGATCCAGTTACGGAACGCGTTTCAAGACTACCGTGTTTGTTCCGTTCATTCAGTAAGCTTCGG [L-9-1 aptamer]
- Kd [3]: 29 nM

Sequence: CGGATCCAGTTACGGANNNNNNNNNNNNNNNNNNNNNNNNNNNNNNTTCATTCAGTAAGCTTCGG [R0 L-DNA library pool]
- IC50 [4]: > 8 µM

Sequence: CGGATCCAGTTACGGANNNNNNNNNNNNNNNNNNNNNNNNNNNNNNTTCATTCAGTAAGCTTCGG [R6 D-DNA pool]
- binding signal [1]: 70 % bound

Sequence: CGGATCCAGTTACGGANNNNNNNNNNNNNNNNNNNNNNNNNNNNNNTTCATTCAGTAAGCTTCGG [R9 L-DNA pool]
- binding signal ([1]; L-DNA (all nucleotides), 200 nM pool): 70 % bound

Sequence: CGGATCCAGTTACGGATGAACTTGTTGAAACCCAACGGGAGAATCGTTCATTCAGTAAGCTTCGG [L-9-2 aptamer]
- Kd [3]: 168 nM

Sequence: CGGATCCAGTTACGGATGAACTTGTTGAAACCCAACGGGAGCCTCGTTCATTCAGTAAGCTTCGGTGG [L-13 aptamer]
- Kd [3]: 22 nM

Sequence: GATGAACTTGTTGAAACCCAACGGGAGAATCGTTCATT [Cy5-L-9-2t aptamer]
- Kd ([1]; L-DNA (all nucleotides)): 355 nM

Sequence: GATGAACTTGTTGAAACCCAACGGGAGAATCGTTCATT [L-9-2t aptamer]
- Kd ([2]; ~1.7-fold weaker than human thrombin): 426 nM
- Kd [3]: 251 nM

Sequence: GATGAACTTGTTGAAACCCAACGGGAGCCTCGTTCATT [Cy5-L-13t aptamer]
- Kd ([1]; L-DNA (all nucleotides)): 28 nM

Sequence: GATGAACTTGTTGAAACCCAACGGGAGCCTCGTTCATT [L-13t aptamer]
- Kd [3]: 34 nM
